Assay results: patent US20080004355A1, “Method for Inhibiting Telomerase Activity and an Agent for Inhibiting the Same” (priority 2004, published 2008)
Numbering of substitutions follows the chain as printed. Peptide text beside a SMILES is read from it. * marks the point of attachment. Cbz = O=C(OCc1ccccc1)*

B1: N-terminal HA-tagged USP21 (enzyme, not shown: small tags and cut ends)
chain: MPQASEHRLGRTREPPVNIQPRVGSKLPFAPRARSKERRNPASGPNPMLRPLPPRPGLPDERLKKLELGRGRTSGPRPRGPLRADHGVPLPGSPPPTVALPLPSRTNLARSKSVSSGDLRPMGIALGGHRGTGELGAALSRLALRPEPPTLRRSTSLRRLGGFPGPPTLFSIRTEPPASHGSFHMISARSSEPFYSDDKMAHHTLLLGSGHVGLRNLGNTCFLNAVLQCLSSTRPLRDFCLRRDFRQEVPGGGRAQELTEAFADVIGALWHPDSCEAVNPTRFRAVFQKYVPSFSGYSQQDAQEFLKLLMERLHLEINRRGRRAPPILANGPVPSPPRRGGALLEEPELSDDDRANLMWKRYLEREDSKIVDLFVGQLKSCLKCQACGYRSTTFEVFCDLSLPIPKKGFAGGKVSLRDCFNLFTKEEELESENAPVCDRCRQKTRSTKKLTVQRFPRILVLHLNRFSASRGSIKKSSVGVDFPLQRLSLGDFASDKAGSPVYQLYALCNHSGSVHYGHYTALCRCQTGWHVYNDSRVSPVSENQVASSEGYVLFYQLMQEPPRCL
notes: Expressed transiently in HEK293T cells from pCI-HA-USP21 (human USP21 cDNA cloned from human kidney cDNA); also called HA-USP21
B2: N-terminal HA-tagged inactive USP21 (protein)
chain: B1 chain with C221A

Tests used:
TERT = assay: Effect of proteasome inhibitor on amount of intracellular TERT (transient TERT expression, Western blotting); type: cell-based, human; conditions: HEK293T cells transfected with pCIneo-TERT; final concentration 25 μM, 24 hours; compared with DMSO control; Western blotting with anti-TERT antibodies
From the text: NEDD8 is a ubiquitin-like protein, and is known to covalently conjugate to proteins for post translational modification of proteins. Only a cullin family protein, which is one of the subunits of a ubiquitin ligase complex, has been reported as a protein that undergoes NEDD8 conjugation (Non-patent References 5 and 6). […] NEDD8 has a significant homology with ubiquitin at the level of both primary structure and tertiary structure. Therefore, it is plausible that NEDD8 conjugation to proteins works as a signal for proteasome-dependent protein degradation (Non-patent Reference 5), similar to ubiquitination. Thus, it can be reasoned, that there exists a regulatory system for TERT degradation via modification by NEDD8 conjugation to TERT and NEDD8 deconjugation by USP21. Accordingly, an investigation was conducted to determine whether TERT may undergo proteasome-dependent degradation. […]
8×10^4 cells/well of HEK293T cells were cultured overnight at 37° C. under the atmosphere of 5% CO2 in 12 well plates, and then transfected with 1 μg of pCIneo-TERT using FuGENE6 Transfection Reagent (Roche). […] Further, β-tubulin, an internal control protein in the cell lysates, was detected by Western blotting using anti-β-tubulin (H-235) antibodies (Santa Cruz). […]

[1] = molecular target: T1, N-terminal FLAG-tagged TERT (human, UniProt O14746 1-1132); assay: co-expression in HEK293T cells, immunoprecipitation with anti-HA agarose, Western blot with anti-FLAG
T1 construct: Expressed transiently in HEK293T cells from pCI-FLAG-TERT (human TERT cDNA cloned from human thymus cDNA); present in the cell lysate; also called FLAG-TERT
T1 sequence (O14746 whole entry): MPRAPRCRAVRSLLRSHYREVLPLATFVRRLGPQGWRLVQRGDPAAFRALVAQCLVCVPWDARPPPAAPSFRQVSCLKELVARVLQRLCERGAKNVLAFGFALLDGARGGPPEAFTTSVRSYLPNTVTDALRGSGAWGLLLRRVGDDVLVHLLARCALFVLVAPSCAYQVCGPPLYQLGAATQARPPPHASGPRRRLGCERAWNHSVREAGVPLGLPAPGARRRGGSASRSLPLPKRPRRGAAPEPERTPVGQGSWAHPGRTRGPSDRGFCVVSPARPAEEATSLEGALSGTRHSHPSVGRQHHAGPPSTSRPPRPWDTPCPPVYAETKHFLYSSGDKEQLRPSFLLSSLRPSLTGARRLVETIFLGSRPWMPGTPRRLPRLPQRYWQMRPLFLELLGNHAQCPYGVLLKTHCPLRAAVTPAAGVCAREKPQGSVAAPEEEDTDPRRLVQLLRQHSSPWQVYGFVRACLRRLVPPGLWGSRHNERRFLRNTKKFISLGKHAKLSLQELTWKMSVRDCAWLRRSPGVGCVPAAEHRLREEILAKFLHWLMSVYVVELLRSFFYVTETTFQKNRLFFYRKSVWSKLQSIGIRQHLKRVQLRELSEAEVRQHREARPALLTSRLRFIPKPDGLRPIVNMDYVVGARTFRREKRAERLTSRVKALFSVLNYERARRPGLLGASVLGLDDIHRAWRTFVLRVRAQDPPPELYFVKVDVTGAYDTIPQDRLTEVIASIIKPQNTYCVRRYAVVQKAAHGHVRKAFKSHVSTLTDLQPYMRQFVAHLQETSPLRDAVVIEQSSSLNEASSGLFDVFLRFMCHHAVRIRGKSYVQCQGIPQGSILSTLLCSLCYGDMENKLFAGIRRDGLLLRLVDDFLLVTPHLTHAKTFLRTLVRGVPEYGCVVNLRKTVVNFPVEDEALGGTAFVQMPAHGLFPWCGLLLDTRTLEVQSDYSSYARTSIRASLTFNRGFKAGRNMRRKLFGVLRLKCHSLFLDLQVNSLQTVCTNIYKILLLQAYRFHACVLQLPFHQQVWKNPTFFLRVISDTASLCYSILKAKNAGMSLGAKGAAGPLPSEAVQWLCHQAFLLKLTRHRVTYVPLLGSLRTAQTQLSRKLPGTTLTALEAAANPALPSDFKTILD
Procedure: 4×10⁵ HEK293T cells were cultured overnight at 37° C. under the atmosphere of 5% CO₂ in a dish with 60 mm diameter, and then transfected with 2 μg of pCI-FLAG-TERT alone or in combination with 2 μg of pCI-HA-USP21 or pCI-HA-NEDD8, using FuGENE6 Transfection Reagent (Roche). After 2 days of culturing, the cells were collected and suspended in 500 μl of cell lysis buffer (20 mM Tris-HCl, pH7.4/150 mM NaCl/1 mM ethylenediaminetetraacetic acid (EDTA)/1 mM ethylene glycol-bis-tetraacetic acid (EGTA)/1% Triton X-100/2.5 mM sodium pyrophsphate/1 mM β-glycerophsphate/1 mM Na₃VO₄/protease inhibitor cocktail), and then left to stand on ice for 20 minutes. Subsequently, centrifugation was conducted at 4° C. for 10 minutes at 14,000 rpm to collect the supernatants. The supernatants that were collected were used as cell lysates. […] The resulting supernatant was added to 10 μl of anti-HA antibody-conjugated agarose (anti-HA(Y-11)-agaraose, Santa cruz), and then subjected to overturned mixing at 4° C. overnight, followed by centrifugation to collect the beads. The beads were washed with the cell lysis buffer four times, and then added with 30 μl of 2× SDS sample buffer (125 mM Tris HCl, pH 6.8/4% sodium dodecylsulphate (SDS)/20% glycerol/0.01% bromophenol blue). […]

[2] = molecular target: TERT modified with one or more FLAG-NEDD8 molecules (NEDD8-conjugated TERT)

Row | Molecule | amount of TERT in cell lysate (TERT) | binding result [1] | smear-like signals in a high molecular region indicating TERT modified with one or more FLAG-NEDD8 molecules (IP anti-TERT, Western blot anti-FLAG) [2]
1 | CC(C)C[C@@H](C=O)NC(=O)[C@H](CC(C)C)NC(=O)[C@H](CC(C)C)NC(=O)OCc1ccccc1 [MG132] (Cbz-Leu-Leu-Leu-aldehyde) | increased amount of TERT | – | –
2 | B1 | – | binds | significantly decreased by co-expression of HA-USP21
3 | B2 | – | – | Such decrease of the signals was not observed when co-expressing the inactive USP21, HA-USP21C221A, instead of HA-USP21
